A short description of the data set: yeast display, Sf9 membrane polyspecificity reagent, FACS + sequencing; frameworks hold sequencing errors. The procedure, abridged: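 After 36–48 hours of galactose induction, yeast (Saccharomyces cerevisiae BJ5465) displaying a synthetic nanobody library were stained at 4 °C for 1 hour with 10% biotinylated, detergent-solubilized Sf9 membrane reagent. Streptavidin microbeads enriched the stained cells before FACS sorting into low and high (top ~1%) gates on anti-HA and streptavidin fluorescence. Each clone's polyreactivity label reflects its gate of origin.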
With “QVQLVESGGGLVQAGGSLRLSCAASGFTFRRYAMGWYRQAPGKERELVAAISIRGGRTYYADSVKGRFTISRDNAKNTVYLQMNSLKPEVTAVYYCAAAPVGYGKRFYYWGQGTQVTVSS”, the “polyreactivity (PSR sort gate)” value is “high polyreactivity”.

On to “QVQLVESGGGLVQAGGSLRLSCAASGLTFVYNDMGWYRQAPGKERELVAGITSGGSTSYADSVKGRFTISRDNAKNTVYLQMNSLKPEDTAVYYCAAGVYALRRDYWGQGTQVTVSS”, for which the “polyreactivity (PSR sort gate)” value is “low polyreactivity”.

With “QVQLVESGGGLVQAGGSLRLSCAASGSTFYNNAMGWYRPAPGKERELVAAISSGGGTYYADSVKGRFTISRDNAKNTVYLQMNSLKPEDTAVYYCAAYFANTTHWGRIKRYDYWGQGTQVTVSS”, the “polyreactivity (PSR sort gate)” value was “low polyreactivity”.

As to “QFQLVESGGGLVQAGGSLRLSCESSGFTFYKYAIGSYRKAPGKERELVAAISRRGTSTYYADSVKGRFTISRDNAKNTVYLQMNSLNPEDTAVYYCNRDVSLSAFDYWGQGTQVTVSS”, the “polyreactivity (PSR sort gate)” value is given as “high polyreactivity”.

Turning to “QVQLQESGGGLEQAGGSLRLSCAASGYISDIGTMGWYRQAPGKEREFVATIVVGSTTNYADSVKGRFTISRDNAKNTVYLQPQSGRYRGVLLRAWLLAVGKFTYWGQGTQETVSS”, the “polyreactivity (PSR sort gate)” value is recorded as “low polyreactivity”.

For the sequence “QVQLVESGGVLVQAGGSLRLSCAASGLTFKWYAMGWYRQAPGKERELVAAITKSGGTTYADSVKGRFTISRDNAKNTVYLQMNSLKPEDTAVYYCAARYWRLWNTVRYEGDFSDGYWGQGTQVTVSS”, the “polyreactivity (PSR sort gate)” value was “high polyreactivity”.

As for “QVHLVESGGGLVQVGGSLRLSCAASGSIFRWYAMGWYRQAPGKERELVAAISSSVGRTYYADSVKGRFTISRDNAKNTVYLQMNSLKPEDTAVYYCAVRYSVVYGTYYYWGQGTKVTVSS”, the “polyreactivity (PSR sort gate)” value is “high polyreactivity”.

On to “QVQLVESGGGLVQAGGSLRLSCAASGNIFDEYTMGWYRQAPGKERELVAAINSGGSTDYADSVKGRFTISRDNAKNTVYLQMNSLKPEDTAVYYCARDVWPTKIQLQPGYGRGEYWGQGTQVTVSS”, for which the “polyreactivity (PSR sort gate)” value is listed as “low polyreactivity”.

As to “QVQLVESGGGLVQAGGSLRLSCAASGRIFRYYAMGWYRQAPGKERELVATITASSGSTYYADSVKGRFTISRDNAKNTVYLQMNSLKPEDTAVYYCAAGFVYRPGSFIRFDYWGQGTQVTVSS”, the “polyreactivity (PSR sort gate)” value is “high polyreactivity”.

“QVQLVESGGGLVQAGGSLRLSCAASGSIFVPYAMGWYRQAPGKERELVAAISYRGGNTYYADSVKGRFTISRDKAKNTVSLQMNSLKPEDTAVYYCNAGVSIGRSRRDDYWGQGTQVTVSS”: the “polyreactivity (PSR sort gate)” value is “low polyreactivity”.

On to “QVQLVESGGGLVQAGGSLRLSCAASGSIFRRNTMGWSRQATGKERELVAAITYRGGSTYYADSVKGRFTISRDNAKNTDYLQMNSLKPEESAVYYCARYLWYYRVSKSDSWGQGTQVTVSS”, for which the “polyreactivity (PSR sort gate)” value is given as “high polyreactivity”.

Take “QVQLVESGGGLVQAGGSLRLSCADSGRTFGSNAMGWYRQAPGKERELVAAISSTVSTNYADSVKGRFTISRDNAKNTVYLQMNSLKPEDTAVYYCNVTRHYSYVSEYDYWGQGTQVTVSS”: the “polyreactivity (PSR sort gate)” value is given as “low polyreactivity”.

Regarding “QVQLVESGGGLVQAGGSLRLSCAASGSTFVRNAMGWYRQAPGKERELVAAIRWRSGSTYYADSVKGRFTISRDNAKNTVYLQMNSLKPEDTAVYYCAVDYNSFRYGPLGYWGQGTQVTVSS”, the “polyreactivity (PSR sort gate)” value was “high polyreactivity”.

With “QVQLVESGGGLVQAGGSLRLSCAASGLIFVRYAMGWYRQAPGKERELVADISTSDGSTRYADSVKGRFTISRDNEKNTVYLQMNSLKPEDTAVYYCAGGSEYYSYGGVRFSFYYWGQGTQVTVSS”, the “polyreactivity (PSR sort gate)” value is listed as “low polyreactivity”.

For “QVQLVESGGGLVQAGGSLRLISAASGITFDYYAIGWSRQAPGKERELVAAITNDGRTYYADSVKGRFTISRDNAKNTVYLQMNSLKPEDTAVYYCARLTFREYDYWGQGTQVTVSS”, the “polyreactivity (PSR sort gate)” value is listed as “low polyreactivity”.

As to “QVQLVESGGGLVQAGGSLRLSCAASGLTFYINDMGWYRQAPGKERELVAAITRGGSTNYADSVKGRLTISRDNAKNTVYLQMNSLKPEDTAVYYCAAGARYGYGYWGHGTQVTVSS”, the “polyreactivity (PSR sort gate)” value is “high polyreactivity”.

Turning to “QVQLVESGGGLVQAGGSLRLSCAASGSIFYYYAAMGWYRQAPGKERELVAAIDSSDGTTYYADSVKGRFTISRDNAKNTVYLQMNSLKPEDTAVYYCAAETVQEFEYWGQGTQVTVSS”, the “polyreactivity (PSR sort gate)” value was “high polyreactivity”.

“QVQLVESGGGLVQAGGSLRLSCAASGLIFSFYAMGWYRKAPGKERELVATISNTDSTNYADSVKGRFTISRDNAKNTVYLQMNRLKPEDTAVYYCAADVWDGRYLYTGVYDYWGQGTQVTVSS”: the “polyreactivity (PSR sort gate)” value was “low polyreactivity”.

Take “QVQLVESGGRLVQAGGSLRLSCAASGFIIVFYDMGWYRQAPGKERELVAGITRNDGSTYYADSVKGRFKISRDNAKNTVYLQMNSLKPEDTAVYYCAADRVRRNDKLAYDYWGQGTQVTVSS”: the “polyreactivity (PSR sort gate)” value is recorded as “low polyreactivity”.

“QVQLVESGGGLVQAGGSLRLSCAAYYYNMGWYRQAPGKESELVASITWSDVSTYYADSVKRRFTISRDNAKNTVYLQMNSLKPEDTAVYYCAKGTWADAYGYWGQGTQVTVSS”: the “polyreactivity (PSR sort gate)” value is reported as “low polyreactivity”.

With “QVQLVESGGGLVQAGGSLRLSCAASGSTFYPYAMGWYRQAPGKERELVAAISSGGSTYYADSVKGRFTISRDNAKNTVYLQMNSLKPQDTAVYYCAADFYYAYYWGQGTQVTVSS”, the “polyreactivity (PSR sort gate)” value is “low polyreactivity”.

For the sequence “QVQLVESGGGLVQAGGSLRLSCAASGSIFYNYAMGWYRQAPGKERELVAAISSNGGSTYYADSVKGRFTISRDNAKNTVYLQMNSLKPEDTAVYYCAKYLSPGERHSYDYWGQGTQVTVSS”, the “polyreactivity (PSR sort gate)” value is “high polyreactivity”.

In the case of “QVQLVESGGGLVQAGGSLRLSCAASGSIFAYYAMGWYRQAPGKERELVAAISYSGDGTYYADSVKGRFTISRDNAKNTVYFQMNSLKPEDTAVYYCAADWDGYFYKSNWDYNYWGQGTQVTVSS”, the “polyreactivity (PSR sort gate)” value was “low polyreactivity”.

As to “QVQLVESGGGLVQAGGSLRLSCAASGRIFSYYAMGWYRQAPGKERELVAAISNGGNTYYADSVKGRFTISRDNAKNTVYLQMNSLKPEDTAVYYCYVRRYDYWGQGTQVTVSS”, the “polyreactivity (PSR sort gate)” value is listed as “high polyreactivity”.

As for “QVQLVESGGGVVQAGGSLRISGAASGSIFPFNAMVWYRQAPGKERELVAAIRRSGGSTYYADSVQGRFTISRYNAKNTVDLQMNSLKPEATAVYYCATDPEWPLPAYYYWGQGTQVTVSS”, the “polyreactivity (PSR sort gate)” value is “low polyreactivity”.

On to “QVQLVESGGGLDQAGGSLRLSCAASGRTFKWNAIGWYRQAHGKERELVASITSGGSTNYADSVKGRFTISRDNAKNTVYLQMNSLKPEDTAVYYCNAEYYLFKRPYSYYYWGQGTQVTVSS”, for which the “polyreactivity (PSR sort gate)” value is recorded as “low polyreactivity”.

In the case of “QVQLVESGGGLVQAGGSLRLSCAASGRILAYYAMGWYRQAPGKERELVAAITSGGRTYYADSVKGRFTISRDNAKNTVYLQMNSLKPEDTPVYYCNAVYGYWYGSWGQGTQVTVSS”, the “polyreactivity (PSR sort gate)” value is “high polyreactivity”.

With “QVQLVESGGGLVQAGGSLRLSCAASGRIFNRNAMGWYRQPPGKERELGAAISRSGSRTYYADSVKWRFTISRDNAKNTVYLQMNSLKPEDTAVYYCAVSGYSPYLYRYGYWGQGTQETVSS”, the “polyreactivity (PSR sort gate)” value is “high polyreactivity”.

For the sequence “QVHLVESGGGLDQAGGSLRLRCAATGRTFKYYAMGWYRQAPGKERELVAAISGSGGSTYYADSVKGRFTISRDNAKNTVYLQMNSLKPEDTAVYYCAAAGKETSRYAYDSWGQGTQVTVSS”, the “polyreactivity (PSR sort gate)” value is listed as “high polyreactivity”.

As to “QVQLVESGGGLVQARGSLSLSCAATGSTSYINAMGWSSQAPWKERELVAAIRSGGSTKYADSVKGRFTISRDNAKNTVYLQMNSVLPEDSSVYYCAARNVYKTSGFRWVWNYDYWGQGTQVTVSS”, the “polyreactivity (PSR sort gate)” value is “high polyreactivity”.

Take “QVQLVESGGGLVQAGGTLRLSCAASGSTFIGNAMGWYRQAPGKVRELVATITSGDSKYADSVKGRFTISRDNAKNTVYLQMNSLKPEDTAVYYCNADPWDIGSTFELDYWGQGTQVTVSS”: the “polyreactivity (PSR sort gate)” value is “low polyreactivity”.

Regarding “QVQLVESGGGLVQAGGSLRLSCAASGSTFNRYAMGWYRQAPGKERELVAAITSTGGTNYADSVKGRFTISLDNAKNTVYLQMYSLKPEDTAVYYCAKRWLRWRSNYWGQGTQVTVSS”, the “polyreactivity (PSR sort gate)” value is listed as “high polyreactivity”.

With “QVQLVETGGGLVHAGGSLRLSCAASGITFTTNTMGWYRQAPGKERELVAAISSTGGNTFYADSVKGRFTISRDNAKNTVYLQMNSLKPEDTAVYYCSYVPSNARGEYDSWGQGTQVTVSS”, the “polyreactivity (PSR sort gate)” value is “low polyreactivity”.

For the sequence “QVQLVESGGGLVQAGGSLRLSCAASGSIFYPYAMGWYRQAPGKERELVAAISSGGTTYYADSVKGRFTISRDNAKNTVYLQMNSLKPEDTAVYYCAAGFYLRAVWMDYWGQGTQVTVSS”, the “polyreactivity (PSR sort gate)” value is “high polyreactivity”.

As to “QVQLVESGGGLVQAGGSLRLSCAASGRISPKNAMGWYRQAPGKERELVATIRKIGGRTYYADSVKGRFTISRDNAKNTVYLQMNSLKPEDTAVYYCATDFAQSYYPDRFDYWGQGTQVTVSS”, the “polyreactivity (PSR sort gate)” value is “low polyreactivity”.

Consider “QVQLVESGGGLVQAGGSLRLSCAASGRTYGYAMGWYRQAPGKERELVARNTWRGGSTSYADSVKGRFTISRDNAKNTVYLQMNSLKPEDTAVYYCAATYGTGRRSKYGYWGQGTQVTVSS”, for which the “polyreactivity (PSR sort gate)” value is “high polyreactivity”.

As to “QVQLVESGGGLVQAGGSLRLSCAASGSIFDVYAMGWYRQAPGKERELVAAIDSGGSSTYYADSVKGRFTISRDNAKNTVYLQMNSLKPEDTAVYYCAARPYYSWNYDYWGQGTQVTVSS”, the “polyreactivity (PSR sort gate)” value is “low polyreactivity”.

“QVQLVESGGGLVQAGGSLRLSCAASGRTFRKYAMGWYRQAPGKERELVAAITTSGARTYYADSVKGRFTISRDNAKNTVYLQMNSLKPEDTAVYYCNAVIPYYGIEFDYWGQGTQVTVSS”: the “polyreactivity (PSR sort gate)” value is “high polyreactivity”.

On to “QVQLVESGGGLVQAGGSLRLSCAASGIILKYYAMGWNRQAPVKERELVAAITSSGDSTYYADSVKGRFTISRDNAKNTVYLQMNSLKPDDTAVYYCAALRFRGGQSTGRDRMDYWGQGTQVTVSS”, for which the “polyreactivity (PSR sort gate)” value is given as “high polyreactivity”.

In the case of “QVQLVESGGGLVQAGGSLRVSCAASGGTFGNNDMGWYRQAPGKEWELFAAIRAAGTTYYADSVKGRFTISRDNAKNTVYLQMNSLKPEDTAVYYCIADTTGYWSYGFQYYGEDYWGQGTQVTVSS”, the “polyreactivity (PSR sort gate)” value is “low polyreactivity”.

Turning to “QVQLVESGGGLVQAGGSLRLSCAASGFIFGYNAMGWYRQAPGKEREFVAAISWTGGRTYYADSVKGRFTISRDNAKNTVYLQMNSLKPEDTAVYYCAALRGWLPGTRTRYYYWGQGTQVTVSS”, the “polyreactivity (PSR sort gate)” value is “high polyreactivity”.

The values above are taken from the nanobody polyreactivity screen of Harvey et al. (2022).
